The values below come from PMC5898713.

The target in test [1] is PhyT (formerly PhyP), T25 fusion. The test can be described thus: BACTH β-galactosidase assay. To be noted: Overnight cultures containing 0.5 mM IPTG and antibiotics for selection, 30°C; three biological replicates; parent: est. 3000; read off a plot.
Test [2] concerns the target NepR wild-type, T25 fusion. The test can be described thus: BACTH β-galactosidase assay. Conditions: Overnight cultures containing 0.5 mM IPTG and antibiotics for selection, 30°C; three biological replicates; parent: est. 1500; read off a plot.

On to PhyR wild-type, T18 fusion D194A, for which the response came out at 1100 Miller units in test [1] and 300 Miller units in test [2].
Taken in the same sequence, the figures for PhyR wild-type, T18 fusion D194A; E235A were 780 Miller units and 6900 Miller units.
Taken in the same sequence, the figures for PhyR wild-type, T18 fusion E235A were 3100 Miller units and 7100 Miller units.
